Source: paper PMC4388176

Molecular target: T1, Reb1 (146-504) (Schizosaccharomyces pombe, UniProt Q9P6H9)
T1 sequence: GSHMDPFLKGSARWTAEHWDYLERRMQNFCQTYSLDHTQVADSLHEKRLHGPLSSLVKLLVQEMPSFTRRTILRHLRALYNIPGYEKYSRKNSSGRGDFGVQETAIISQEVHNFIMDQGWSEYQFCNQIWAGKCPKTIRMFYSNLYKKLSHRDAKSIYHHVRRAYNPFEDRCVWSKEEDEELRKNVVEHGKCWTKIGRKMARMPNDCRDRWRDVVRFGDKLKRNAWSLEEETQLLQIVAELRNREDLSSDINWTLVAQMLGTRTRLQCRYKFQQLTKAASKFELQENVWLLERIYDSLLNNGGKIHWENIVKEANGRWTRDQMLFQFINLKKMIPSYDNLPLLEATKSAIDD
Assay: X-ray crystallography

B1: Ter3 26-mer (crystal) (dsDNA)
DNA 1: GTAAAAGGTAAGGGTAATGCACTTTT
DNA 2: CAAAAGTGCATTACCCTTACCTTTTA
- binding result: binds
